In patent US20140223606, “COMPOSITIONS AND METHODS COMPRISING SEQUENCES HAVING MEGANUCLEASE ACTIVITY” (PIONEER HI BRED INTERNATIONAL INC, published 2014):

T1: MHP14+(14) (artificial)
T1 chain: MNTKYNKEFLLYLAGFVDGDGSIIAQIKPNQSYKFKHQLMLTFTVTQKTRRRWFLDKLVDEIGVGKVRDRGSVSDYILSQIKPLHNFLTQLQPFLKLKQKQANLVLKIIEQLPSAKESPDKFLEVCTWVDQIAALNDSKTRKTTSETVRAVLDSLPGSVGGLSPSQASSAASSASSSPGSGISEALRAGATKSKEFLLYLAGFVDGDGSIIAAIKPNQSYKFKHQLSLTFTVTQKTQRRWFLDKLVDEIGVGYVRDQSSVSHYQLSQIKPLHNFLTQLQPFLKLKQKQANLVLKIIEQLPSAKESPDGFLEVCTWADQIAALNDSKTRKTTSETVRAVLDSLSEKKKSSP

T2: MHP14+(12) (artificial)
T2 chain: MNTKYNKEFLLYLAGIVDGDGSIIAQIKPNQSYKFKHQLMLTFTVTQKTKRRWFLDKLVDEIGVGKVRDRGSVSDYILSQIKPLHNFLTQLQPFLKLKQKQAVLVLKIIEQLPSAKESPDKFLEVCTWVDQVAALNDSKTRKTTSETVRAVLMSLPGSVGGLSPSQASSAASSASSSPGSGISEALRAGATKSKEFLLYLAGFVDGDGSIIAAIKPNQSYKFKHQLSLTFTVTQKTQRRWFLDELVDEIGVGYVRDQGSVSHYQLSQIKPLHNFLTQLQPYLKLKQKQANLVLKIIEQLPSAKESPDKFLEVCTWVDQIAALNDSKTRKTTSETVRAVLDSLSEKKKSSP

T3: MHP14+(08) (artificial)
T3 chain: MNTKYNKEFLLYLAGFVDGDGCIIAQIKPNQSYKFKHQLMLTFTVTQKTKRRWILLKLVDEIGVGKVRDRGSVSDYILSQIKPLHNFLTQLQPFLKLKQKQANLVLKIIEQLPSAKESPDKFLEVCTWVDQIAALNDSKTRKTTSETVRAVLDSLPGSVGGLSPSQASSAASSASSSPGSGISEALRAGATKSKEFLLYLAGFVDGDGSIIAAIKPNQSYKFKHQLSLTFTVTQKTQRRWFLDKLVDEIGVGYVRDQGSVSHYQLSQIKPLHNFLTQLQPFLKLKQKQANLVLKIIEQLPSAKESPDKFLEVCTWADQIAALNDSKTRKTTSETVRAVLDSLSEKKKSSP

T4: MHP14+(06) (artificial)
T4 chain: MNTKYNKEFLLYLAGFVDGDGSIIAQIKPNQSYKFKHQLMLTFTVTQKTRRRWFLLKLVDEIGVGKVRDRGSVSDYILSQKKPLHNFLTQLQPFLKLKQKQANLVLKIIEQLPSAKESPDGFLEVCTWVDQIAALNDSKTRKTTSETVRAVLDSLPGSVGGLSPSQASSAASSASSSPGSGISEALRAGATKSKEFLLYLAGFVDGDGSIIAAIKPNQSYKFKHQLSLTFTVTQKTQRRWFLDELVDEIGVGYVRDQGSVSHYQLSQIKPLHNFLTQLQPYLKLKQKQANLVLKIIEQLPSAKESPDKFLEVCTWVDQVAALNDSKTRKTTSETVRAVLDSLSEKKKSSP

T5: ZM6.3(H2) (artificial)
T5 chain: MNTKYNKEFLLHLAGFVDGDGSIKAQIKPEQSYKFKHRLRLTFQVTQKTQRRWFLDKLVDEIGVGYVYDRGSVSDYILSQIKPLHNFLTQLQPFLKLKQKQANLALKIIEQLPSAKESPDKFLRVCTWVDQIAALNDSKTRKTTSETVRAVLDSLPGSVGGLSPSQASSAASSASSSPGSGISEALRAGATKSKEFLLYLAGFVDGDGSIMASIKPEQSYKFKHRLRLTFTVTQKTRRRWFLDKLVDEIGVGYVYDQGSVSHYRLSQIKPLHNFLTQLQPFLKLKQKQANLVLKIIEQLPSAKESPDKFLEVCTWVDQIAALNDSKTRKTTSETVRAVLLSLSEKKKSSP


Columns and labels:
[1] = molecular target: T1, MHP14+(14); assay: cell_activity; maize; yeast 37 C: 4; settings: tags: SV40 NLS
[2] = molecular target: T2, MHP14+(12); assay: cell_activity; maize; yeast 37 C: 4; settings: tags: SV40 NLS
[3] = molecular target: T3, MHP14+(08); assay: cell_activity; maize; yeast 37 C: 4; settings: tags: SV40 NLS
[4] = molecular target: T4, MHP14+(06); assay: cell_activity; maize; yeast 37 C: 4; settings: tags: SV40 NLS
[5] = molecular target: T5, ZM6.3(H2); assay: cell_activity; yeast 37 C; 28 C: 2; settings: tags: NLS, 6xHis
Description: A 3 mL culture of selective media (MP Biomedical) was inoculated with a single colony of the yeast screening strain and grown at 30° C. overnight. On the following day, a 50 ml YPD culture (MP Biomedical) was started with 2 ml of the overnight culture and grown at 30° C. overnight. On the following day, the cells were harvested by centrifugation at 4000 rpm. The cells were resuspended in 100 ml ice cold water and centrifuged again. The cells were then washed in 1.2 M sorbitol, followed by treatment with 2 ml of 10 mM Tris pH 8.0, 1 mM EDTA, 100 mM Lithium acetate, 10 mM DTT, 0.6M sorbitol for 30 minutes at 30° C. with shaking. The cells were recovered by centrifugation, washed in 40 ml 1.2M sorbitol and finally resuspended in 250 microliters of 1.2M sorbitol. 50 microliter aliquots were transferred to test tubes on ice. Up to 5 microliters of DNA (100-500 nanograms) were added. The suspension was transferred to a 0.2 cm electroporation cuvette, on ice. Electroporation was performed with a pulse charge at 1.5 kV, 200 ohms, 25 microF (pulse time of 5 milliseconds). 1 mL YPD media (MP Biomedical) was added and the cells were allowed to recover at 30° C. for 1-2 hr. The cells were centrifuged, resuspended in 100 uL 1M sorbitol and plated on selective media lacking leucine and containing 2% galactose. The resulting yeast colonies were incubated at various temperatures ranging from 22 to 37 degrees Celsius for 7-10 days. I-CreI and meganucleases derived from it have maximal activity at or above 37 degrees Celsius. Screening was performed at a range of temperatures from 22 to 37 degrees in order to observe increases in activity at lower temperatures which are relevant to certain biological systems (eg. plant cells, plant cell cultures, etc). At that time the red/white sectoring phenotype, indicative of meganuclease activity was observed. Colonies with increased white sectoring over the parental meganuclease (indicating colonies expressing a meganuclease with increased meganuclease activity), also referred to as “hits” and sometimes completely white, were isolated for further analysis.
A total of 15 Zm6.3 variants with increased activity were confirmed in the yeast system (as described in Example 6). Increased activity was observed across a range of temperatures: 28 degrees Celsius, 30 degrees Celsius and 37 degrees Celsius, as shown in Table 15.

Row | Binder | activity [1] | activity [2] | activity [3] | activity [4] | activity [5]
1 | MHP14 recognition site (dsDNA) DNA 1: CAAACAGATTCACGTCAGATTT DNA 2: AAATCTGACGTGAATCTGTTTG | 39 % target site mutation rate | 47 % target site mutation rate | 25 % target site mutation rate | 7 % target site mutation rate | –
2 | ZM6.3 recognition site (dsDNA) DNA 1: CAGGCTCTCGTAAATGCGCCTG DNA 2: CAGGCGCATTTACGAGAGCCTG | – | – | – | – | 4 score 0-4
